Experimental data: the Human Domainome abundance scans (Beltran et al. 2025)
± gives the uncertainty stated by the source.

B1: Tyrosine-protein kinase Lck, residues 63 to 120; numbered along this chain, P06239 (parent)
chain: DNLVIALHSYEPSHDGDLGFEKGEQLRILEQSGEWWKAQSLTTGQEGFIPFNFVAKAN

Variants of: B1
Assay: abundance fitness (aPCA) (normalised: wild type 0, dead -1); higher = more abundant; growth selection in yeast, the domain comes from the species named
Details: Homo sapiens

**Q.** For T43P, which abundance fitness is on record?
**A.** -0.909 ± 0.16

**Q.** For T43Q, which abundance fitness is on record?
**A.** -0.549 ± 0.14

**Q.** For T43R, which abundance fitness is on record?
**A.** -0.624 ± 0.085

**Q.** With T43S as the variant, how does the abundance fitness read?
**A.** -0.101 ± 0.088

**Q.** With T43V as the variant, how does the abundance fitness read?
**A.** -0.854 ± 0.097

**Q.** With T43W as the variant, how does the abundance fitness read?
**A.** -1.1 ± 0.18

**Q.** For T43Y, which abundance fitness is on record?
**A.** -0.85 ± 0.2

**Q.** Which abundance fitness does the source give for G44A here?
**A.** -0.264 ± 0.09

**Q.** With G44C as the variant, how does the abundance fitness read?
**A.** -0.446 ± 0.1

**Q.** With G44E as the variant, how does the abundance fitness read?
**A.** -0.222 ± 0.11

**Q.** Which abundance fitness does the source give for G44F here?
**A.** -0.394 ± 0.19

**Q.** Which abundance fitness does the source give for G44H here?
**A.** -0.321 ± 0.13

**Q.** Which abundance fitness does the source give for G44I here?
**A.** -0.591 ± 0.24

**Q.** For G44L, which abundance fitness is on record?
**A.** -0.271 ± 0.082

**Q.** Which abundance fitness does the source give for G44M here?
**A.** -0.272 ± 0.18

**Q.** With G44N as the variant, how does the abundance fitness read?
**A.** -0.193 ± 0.15

**Q.** With G44P as the variant, how does the abundance fitness read?
**A.** -1.07 ± 0.3

**Q.** With G44Q as the variant, how does the abundance fitness read?
**A.** -0.24 ± 0.12

**Q.** For G44R, which abundance fitness is on record?
**A.** -0.22 ± 0.078

**Q.** For G44S, which abundance fitness is on record?
**A.** -0.268 ± 0.088

**Q.** With G44T as the variant, how does the abundance fitness read?
**A.** -0.557 ± 0.17

**Q.** Which abundance fitness does the source give for G44V here?
**A.** -0.819 ± 0.1

**Q.** For G44W, which abundance fitness is on record?
**A.** -0.541 ± 0.11

**Q.** Which abundance fitness does the source give for G44Y here?
**A.** -0.467 ± 0.2

**Q.** Which abundance fitness does the source give for Q45A here?
**A.** -0.087 ± 0.09

**Q.** With Q45C as the variant, how does the abundance fitness read?
**A.** -0.117 ± 0.11

**Q.** With Q45D as the variant, how does the abundance fitness read?
**A.** -0.217 ± 0.15

**Q.** Which abundance fitness does the source give for Q45E here?
**A.** 0.001 ± 0.1

**Q.** For Q45F, which abundance fitness is on record?
**A.** -0.303 ± 0.18

**Q.** With Q45G as the variant, how does the abundance fitness read?
**A.** -0.308 ± 0.068

**Q.** For Q45H, which abundance fitness is on record?
**A.** -0.23 ± 0.21

**Q.** With Q45I as the variant, how does the abundance fitness read?
**A.** -0.662 ± 0.42

**Q.** For Q45K, which abundance fitness is on record?
**A.** -0.101 ± 0.15

**Q.** For Q45L, which abundance fitness is on record?
**A.** -0.112 ± 0.087

**Q.** For Q45M, which abundance fitness is on record?
**A.** -0.092 ± 0.11

**Q.** With Q45N as the variant, how does the abundance fitness read?
**A.** -0.288 ± 0.23

**Q.** Which abundance fitness does the source give for Q45P here?
**A.** -0.57 ± 0.16

**Q.** With Q45R as the variant, how does the abundance fitness read?
**A.** -0.015 ± 0.065

**Q.** With Q45S as the variant, how does the abundance fitness read?
**A.** -0.282 ± 0.098

**Q.** For Q45T, which abundance fitness is on record?
**A.** -0.146 ± 0.11

**Q.** For Q45V, which abundance fitness is on record?
**A.** -0.187 ± 0.1

**Q.** For Q45W, which abundance fitness is on record?
**A.** -0.599 ± 0.091

**Q.** For E46A, which abundance fitness is on record?
**A.** -0.024 ± 0.089

**Q.** Which abundance fitness does the source give for E46C here?
**A.** -0.023 ± 0.11

**Q.** For E46F, which abundance fitness is on record?
**A.** -0.294 ± 0.13

**Q.** Which abundance fitness does the source give for E46G here?
**A.** -0.632 ± 0.076

**Q.** Which abundance fitness does the source give for E46H here?
**A.** -0.448 ± 0.13

**Q.** Which abundance fitness does the source give for E46I here?
**A.** 0.131 ± 0.12

**Q.** For E46K, which abundance fitness is on record?
**A.** -0.05 ± 0.16

**Q.** With E46L as the variant, how does the abundance fitness read?
**A.** -0.157 ± 0.077

**Q.** With E46M as the variant, how does the abundance fitness read?
**A.** -0.032 ± 0.11

**Q.** Which abundance fitness does the source give for E46N here?
**A.** -0.217 ± 0.16

**Q.** For E46P, which abundance fitness is on record?
**A.** -0.745 ± 0.15

**Q.** Which abundance fitness does the source give for E46Q here?
**A.** -0.038 ± 0.11

**Q.** Which abundance fitness does the source give for E46R here?
**A.** -0.207 ± 0.068

**Q.** For E46S, which abundance fitness is on record?
**A.** 0.021 ± 0.091

**Q.** For E46V, which abundance fitness is on record?
**A.** 0.042 ± 0.083

**Q.** For E46W, which abundance fitness is on record?
**A.** -0.517 ± 0.1

**Q.** Which abundance fitness does the source give for E46Y here?
**A.** -0.316 ± 0.12

**Q.** For G47C, which abundance fitness is on record?
**A.** -1.07 ± 0.18

**Q.** For G47D, which abundance fitness is on record?
**A.** -0.912 ± 0.15

**Q.** For G47E, which abundance fitness is on record?
**A.** -0.831 ± 0.12

**Q.** For G47F, which abundance fitness is on record?
**A.** -0.982 ± 0.45

**Q.** With G47H as the variant, how does the abundance fitness read?
**A.** -0.81 ± 0.21

**Q.** For G47I, which abundance fitness is on record?
**A.** -1.02 ± 0.3

**Q.** For G47L, which abundance fitness is on record?
**A.** -0.789 ± 0.1

**Q.** With G47M as the variant, how does the abundance fitness read?
**A.** -0.884 ± 0.17

**Q.** With G47P as the variant, how does the abundance fitness read?
**A.** -0.687 ± 0.15

**Q.** With G47Q as the variant, how does the abundance fitness read?
**A.** -0.986 ± 0.18

**Q.** Which abundance fitness does the source give for G47R here?
**A.** -0.687 ± 0.085

**Q.** For G47S, which abundance fitness is on record?
**A.** -0.931 ± 0.12

**Q.** For G47T, which abundance fitness is on record?
**A.** -0.831 ± 0.15

**Q.** With G47V as the variant, how does the abundance fitness read?
**A.** -0.807 ± 0.09

**Q.** For G47W, which abundance fitness is on record?
**A.** -0.831 ± 0.15

**Q.** For F48A, which abundance fitness is on record?
**A.** -0.235 ± 0.081

**Q.** For F48D, which abundance fitness is on record?
**A.** -0.559 ± 0.14

**Q.** For F48E, which abundance fitness is on record?
**A.** -0.286 ± 0.085

**Q.** Which abundance fitness does the source give for F48G here?
**A.** -0.576 ± 0.063

**Q.** For F48H, which abundance fitness is on record?
**A.** -0.172 ± 0.17

**Q.** For F48I, which abundance fitness is on record?
**A.** -0.264 ± 0.18

**Q.** Which abundance fitness does the source give for F48K here?
**A.** 0.115 ± 0.096

**Q.** Which abundance fitness does the source give for F48L here?
**A.** 0.019 ± 0.07

**Q.** For F48M, which abundance fitness is on record?
**A.** -0.063 ± 0.092

**Q.** With F48P as the variant, how does the abundance fitness read?
**A.** -0.52 ± 0.12

**Q.** For F48Q, which abundance fitness is on record?
**A.** -0.274 ± 0.12

**Q.** With F48R as the variant, how does the abundance fitness read?
**A.** 0.011 ± 0.062

**Q.** Which abundance fitness does the source give for F48S here?
**A.** -0.308 ± 0.079

**Q.** Which abundance fitness does the source give for F48T here?
**A.** -0.115 ± 0.11

**Q.** For F48V, which abundance fitness is on record?
**A.** -0.096 ± 0.064

**Q.** With F48W as the variant, how does the abundance fitness read?
**A.** 0.075 ± 0.077

**Q.** With I49A as the variant, how does the abundance fitness read?
**A.** -0.646 ± 0.11

**Q.** Which abundance fitness does the source give for I49C here?
**A.** -0.67 ± 0.15

**Q.** For I49D, which abundance fitness is on record?
**A.** -0.801 ± 0.18

**Q.** With I49E as the variant, how does the abundance fitness read?
**A.** -0.996 ± 0.14

**Q.** With I49F as the variant, how does the abundance fitness read?
**A.** -0.427 ± 0.16

**Q.** With I49G as the variant, how does the abundance fitness read?
**A.** -0.905 ± 0.11

**Q.** With I49H as the variant, how does the abundance fitness read?
**A.** -0.794 ± 0.23

**Q.** With I49K as the variant, how does the abundance fitness read?
**A.** -0.771 ± 0.18

**Q.** Which abundance fitness does the source give for I49L here?
**A.** -0.367 ± 0.079

**Q.** Which abundance fitness does the source give for I49M here?
**A.** -0.663 ± 0.24

**Q.** Which abundance fitness does the source give for I49N here?
**A.** -0.828 ± 0.21

**Q.** For I49P, which abundance fitness is on record?
**A.** -0.759 ± 0.17

**Q.** With I49Q as the variant, how does the abundance fitness read?
**A.** -0.796 ± 0.17

**Q.** For I49R, which abundance fitness is on record?
**A.** -0.792 ± 0.079

**Q.** Which abundance fitness does the source give for I49S here?
**A.** -0.939 ± 0.12

**Q.** For I49T, which abundance fitness is on record?
**A.** -0.622 ± 0.14

**Q.** Which abundance fitness does the source give for I49V here?
**A.** -0.094 ± 0.071

**Q.** With I49W as the variant, how does the abundance fitness read?
**A.** -0.967 ± 0.13

**Q.** Which abundance fitness does the source give for I49Y here?
**A.** -1.2 ± 0.28

**Q.** Which abundance fitness does the source give for P50A here?
**A.** -1 ± 0.2

**Q.** Which abundance fitness does the source give for P50D here?
**A.** -0.73 ± 0.3

**Q.** For P50E, which abundance fitness is on record?
**A.** -1.21 ± 0.28

**Q.** With P50F as the variant, how does the abundance fitness read?
**A.** -0.885 ± 0.21

**Q.** Which abundance fitness does the source give for P50G here?
**A.** -0.888 ± 0.1

**Q.** For P50H, which abundance fitness is on record?
**A.** -0.474 ± 0.15

**Q.** Which abundance fitness does the source give for P50I here?
**A.** -0.874 ± 0.24

**Q.** With P50K as the variant, how does the abundance fitness read?
**A.** -0.719 ± 0.15

**Q.** For P50L, which abundance fitness is on record?
**A.** -0.995 ± 0.12

**Q.** For P50M, which abundance fitness is on record?
**A.** -1.03 ± 0.18

**Q.** For P50N, which abundance fitness is on record?
**A.** -0.652 ± 0.18

**Q.** For P50S, which abundance fitness is on record?
**A.** -0.796 ± 0.12

**Q.** For P50T, which abundance fitness is on record?
**A.** -0.851 ± 0.15

**Q.** Which abundance fitness does the source give for P50V here?
**A.** -0.936 ± 0.13

**Q.** Which abundance fitness does the source give for P50W here?
**A.** -0.709 ± 0.16

**Q.** Which abundance fitness does the source give for P50Y here?
**A.** -1.08 ± 0.34

**Q.** With F51A as the variant, how does the abundance fitness read?
**A.** 0.104 ± 0.083

**Q.** For F51C, which abundance fitness is on record?
**A.** 0.163 ± 0.1

**Q.** Which abundance fitness does the source give for F51D here?
**A.** -0.178 ± 0.12

**Q.** For F51E, which abundance fitness is on record?
**A.** -0.022 ± 0.11

**Q.** Which abundance fitness does the source give for F51G here?
**A.** 0.095 ± 0.071

**Q.** Which abundance fitness does the source give for F51H here?
**A.** -0.055 ± 0.17

**Q.** For F51I, which abundance fitness is on record?
**A.** 0.047 ± 0.18

**Q.** Which abundance fitness does the source give for F51K here?
**A.** 0.103 ± 0.11

**Q.** For F51L, which abundance fitness is on record?
**A.** -0.221 ± 0.073
